Data taken from patent publication US20250243262A1 (AstraZeneca / MedImmune, published 2025).

Molecular target: PcrV on live P. aeruginosa (type III secretion system of the infecting bacteria) (Pseudomonas aeruginosa)
Assay: cell-based or functional assay

B1: V2L2 anti-PcrV monoclonal antibody (antibody, IgG1, V domains shown)
VH: EMQLLESGGGLVQPGGSLRLSCAASGFTFSSYAMNWVRQAPGEGLEWVSAITISGITAYYTDSVKGRFTISRDNSKNTLYLQMNSLRAGDTAVYYCAKEEFLPGTHYYYGMDVWGQGTTVTVSS
VL: AIQMTQSPSSLSASVGDRVTITCRASQGIRNDLGWYQQKPGKAPKLVIYSASTLQSGVPSRFSGSGSGTDFTLSISSLQPDDFATYYCLQDYNYPWTFGQGTKVEIK
For B1, the “inhibition of cytotoxicity, IC50 against that of mAb166” value was 28 fold, the “percent inhibition of cytotoxicity (lysis of A549 cells by P. aeruginosa 6077, LDH release), IC50” value was 0.1 µg/mL and the “prevention of RBC lysis, IC50 against that of mAb166” value was 10 fold. For the same binder, the “prevention of lysis of rabbit RBCs by P. aeruginosa 6077, IC50” value was 0.37 µg/mL.
